Experimental findings from patent US20170157212 are described below.

For this data set, the system named is purified recombinant CRIF1.

Turning to HA-tagged full-length human CDK12, the “CDK12-mediated phosphorylation of the human GST-CTD substrate in vitro (immunoblot, CTD-Ser2P)” value is reported as “recombinant CRIF1 potently inhibited CDK12-mediated phosphorylation of the human GST-CTD substrate in vitro, in a dose-dependent manner”; the “S65 and T70 phosphorylation of recombinant 4E-BP1 in vitro (reactions with CDK12 and mTORC1/Raptor)” value was “rCRIF1 potently and selectively inhibited S65 and T70 phosphorylation of 4E-BP1 in vitro, in a dose-dependent manner, without affecting phosphorylation of the T37/46 sites by mTORC1”.
